Source: PMC3017026

Target: recombinant human α-synuclein (human) (UniProt P37840)

amyloid-β 1-42 synthetic peptide
EC50 of the loss of synaptophysin (ELISA) in mouse cortical neurons incubated 24 hours with αSN premixed with Aβ1-42 (1:50); αSN alone 500 nM: 25 nM
